Results reported in patent publication US20230257453A1 (published 2023).
Substitutions are numbered along the chain they refer to. Where two headings read alike, the source gives them in different places. Blank lines part the entries; values can stand above or below the binder they belong to.

Columns and labels:
Assay in all cases: ELISA
[1] = molecular target: T1, denatured human collagen type IV (UniProt P02462 173-1669; P08572 184-1712)
[2] = molecular target: T2, denatured human collagen I (UniProt P02452 162-1218; P08123 80-1119)
[3] = molecular target: T2, denatured human collagen I; remark: listed apart in the source
[4] = molecular target: T1, denatured human collagen type IV; remark: listed apart in the source
[5] = molecular target: T3, denatured human collagen type V (UniProt P20908 38-1605)
[6] = molecular target: T4, denatured human collagen type III (UniProt P02461 154-1221)
T4 chain: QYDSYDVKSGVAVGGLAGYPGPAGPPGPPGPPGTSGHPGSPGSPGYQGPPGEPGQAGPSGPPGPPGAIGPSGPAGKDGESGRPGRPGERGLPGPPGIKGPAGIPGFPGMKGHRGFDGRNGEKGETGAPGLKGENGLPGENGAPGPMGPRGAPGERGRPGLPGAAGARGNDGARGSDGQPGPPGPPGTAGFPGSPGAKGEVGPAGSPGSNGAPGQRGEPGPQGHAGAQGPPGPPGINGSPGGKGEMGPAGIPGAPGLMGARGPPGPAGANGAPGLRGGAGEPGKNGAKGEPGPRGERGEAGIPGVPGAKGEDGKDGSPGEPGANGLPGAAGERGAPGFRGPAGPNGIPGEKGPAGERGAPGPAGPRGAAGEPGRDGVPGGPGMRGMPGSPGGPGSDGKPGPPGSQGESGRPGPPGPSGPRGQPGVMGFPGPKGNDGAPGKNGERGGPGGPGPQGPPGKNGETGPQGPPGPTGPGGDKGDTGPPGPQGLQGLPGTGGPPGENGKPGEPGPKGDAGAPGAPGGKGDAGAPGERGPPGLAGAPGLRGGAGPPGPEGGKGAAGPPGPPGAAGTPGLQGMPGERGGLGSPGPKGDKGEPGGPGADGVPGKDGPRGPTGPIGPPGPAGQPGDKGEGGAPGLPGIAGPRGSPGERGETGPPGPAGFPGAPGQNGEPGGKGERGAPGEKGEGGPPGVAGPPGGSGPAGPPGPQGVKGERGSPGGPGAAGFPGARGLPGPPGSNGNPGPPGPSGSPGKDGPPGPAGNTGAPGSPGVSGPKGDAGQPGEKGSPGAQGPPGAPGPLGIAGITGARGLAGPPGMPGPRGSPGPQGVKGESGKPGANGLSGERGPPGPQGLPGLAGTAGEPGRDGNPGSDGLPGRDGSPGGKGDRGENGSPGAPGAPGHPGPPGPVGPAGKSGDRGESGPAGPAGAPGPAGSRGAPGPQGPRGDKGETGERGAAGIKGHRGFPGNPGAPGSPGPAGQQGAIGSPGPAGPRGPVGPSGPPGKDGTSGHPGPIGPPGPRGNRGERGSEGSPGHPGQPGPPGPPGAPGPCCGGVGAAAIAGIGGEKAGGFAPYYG

[7] = molecular target: denatured mouse collagen IV (mouse, UniProt P02463 28-1669; P08122 26-1707)
[8] = molecular target: denatured mouse collagen I (mouse, UniProt P11087 152-1207; Q01149 86-1125)
[9] = molecular target: T3, denatured human collagen type V; remark: listed apart in the source
[10] = molecular target: T1, denatured human collagen type IV; remark: listed apart in the source
[11] = molecular target: T4, denatured human collagen type III

T3 sequence (P20908 38-1605): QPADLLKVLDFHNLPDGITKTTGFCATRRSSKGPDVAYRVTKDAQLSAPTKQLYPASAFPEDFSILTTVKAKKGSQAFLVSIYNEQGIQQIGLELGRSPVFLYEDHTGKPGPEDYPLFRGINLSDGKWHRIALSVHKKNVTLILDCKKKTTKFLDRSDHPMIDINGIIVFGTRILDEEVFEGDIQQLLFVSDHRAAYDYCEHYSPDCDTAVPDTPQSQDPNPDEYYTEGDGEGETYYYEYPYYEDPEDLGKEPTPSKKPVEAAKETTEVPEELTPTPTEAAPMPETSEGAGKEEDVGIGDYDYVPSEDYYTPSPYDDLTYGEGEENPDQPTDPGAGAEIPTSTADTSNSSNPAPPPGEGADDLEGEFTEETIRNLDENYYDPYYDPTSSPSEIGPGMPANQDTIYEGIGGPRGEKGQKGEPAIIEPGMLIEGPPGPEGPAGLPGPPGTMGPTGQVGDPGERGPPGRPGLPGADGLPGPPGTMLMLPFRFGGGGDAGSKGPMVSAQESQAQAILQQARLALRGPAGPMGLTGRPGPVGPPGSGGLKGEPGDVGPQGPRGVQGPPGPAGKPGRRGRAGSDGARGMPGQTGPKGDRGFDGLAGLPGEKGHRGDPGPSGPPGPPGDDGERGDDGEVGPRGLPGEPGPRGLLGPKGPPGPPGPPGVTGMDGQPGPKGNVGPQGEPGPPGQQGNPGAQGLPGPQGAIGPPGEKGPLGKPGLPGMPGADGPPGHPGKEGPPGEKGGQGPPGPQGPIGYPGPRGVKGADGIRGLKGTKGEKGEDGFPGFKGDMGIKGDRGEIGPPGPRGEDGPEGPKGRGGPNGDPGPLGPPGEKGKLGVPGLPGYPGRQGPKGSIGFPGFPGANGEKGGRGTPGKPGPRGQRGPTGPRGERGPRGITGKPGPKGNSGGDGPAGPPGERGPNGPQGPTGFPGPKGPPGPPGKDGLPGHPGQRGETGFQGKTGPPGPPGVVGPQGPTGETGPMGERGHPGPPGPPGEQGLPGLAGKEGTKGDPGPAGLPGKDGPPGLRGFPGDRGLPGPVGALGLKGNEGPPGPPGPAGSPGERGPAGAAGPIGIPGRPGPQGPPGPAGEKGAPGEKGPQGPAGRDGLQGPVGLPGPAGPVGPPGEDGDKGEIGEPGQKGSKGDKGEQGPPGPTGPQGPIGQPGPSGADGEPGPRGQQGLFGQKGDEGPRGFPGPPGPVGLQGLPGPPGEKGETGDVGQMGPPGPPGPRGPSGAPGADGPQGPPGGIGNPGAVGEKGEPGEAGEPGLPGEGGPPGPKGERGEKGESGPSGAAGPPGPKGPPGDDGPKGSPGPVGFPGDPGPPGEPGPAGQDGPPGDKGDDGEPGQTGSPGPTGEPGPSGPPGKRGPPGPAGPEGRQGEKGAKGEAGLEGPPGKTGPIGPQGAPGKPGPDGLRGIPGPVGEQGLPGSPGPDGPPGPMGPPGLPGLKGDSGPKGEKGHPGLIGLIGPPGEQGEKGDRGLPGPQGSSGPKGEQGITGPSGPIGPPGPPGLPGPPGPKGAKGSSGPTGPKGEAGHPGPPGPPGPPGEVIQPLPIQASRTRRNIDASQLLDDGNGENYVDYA
denatured mouse collagen IV, sequence (P02463 28-1669, chain 1 of 2): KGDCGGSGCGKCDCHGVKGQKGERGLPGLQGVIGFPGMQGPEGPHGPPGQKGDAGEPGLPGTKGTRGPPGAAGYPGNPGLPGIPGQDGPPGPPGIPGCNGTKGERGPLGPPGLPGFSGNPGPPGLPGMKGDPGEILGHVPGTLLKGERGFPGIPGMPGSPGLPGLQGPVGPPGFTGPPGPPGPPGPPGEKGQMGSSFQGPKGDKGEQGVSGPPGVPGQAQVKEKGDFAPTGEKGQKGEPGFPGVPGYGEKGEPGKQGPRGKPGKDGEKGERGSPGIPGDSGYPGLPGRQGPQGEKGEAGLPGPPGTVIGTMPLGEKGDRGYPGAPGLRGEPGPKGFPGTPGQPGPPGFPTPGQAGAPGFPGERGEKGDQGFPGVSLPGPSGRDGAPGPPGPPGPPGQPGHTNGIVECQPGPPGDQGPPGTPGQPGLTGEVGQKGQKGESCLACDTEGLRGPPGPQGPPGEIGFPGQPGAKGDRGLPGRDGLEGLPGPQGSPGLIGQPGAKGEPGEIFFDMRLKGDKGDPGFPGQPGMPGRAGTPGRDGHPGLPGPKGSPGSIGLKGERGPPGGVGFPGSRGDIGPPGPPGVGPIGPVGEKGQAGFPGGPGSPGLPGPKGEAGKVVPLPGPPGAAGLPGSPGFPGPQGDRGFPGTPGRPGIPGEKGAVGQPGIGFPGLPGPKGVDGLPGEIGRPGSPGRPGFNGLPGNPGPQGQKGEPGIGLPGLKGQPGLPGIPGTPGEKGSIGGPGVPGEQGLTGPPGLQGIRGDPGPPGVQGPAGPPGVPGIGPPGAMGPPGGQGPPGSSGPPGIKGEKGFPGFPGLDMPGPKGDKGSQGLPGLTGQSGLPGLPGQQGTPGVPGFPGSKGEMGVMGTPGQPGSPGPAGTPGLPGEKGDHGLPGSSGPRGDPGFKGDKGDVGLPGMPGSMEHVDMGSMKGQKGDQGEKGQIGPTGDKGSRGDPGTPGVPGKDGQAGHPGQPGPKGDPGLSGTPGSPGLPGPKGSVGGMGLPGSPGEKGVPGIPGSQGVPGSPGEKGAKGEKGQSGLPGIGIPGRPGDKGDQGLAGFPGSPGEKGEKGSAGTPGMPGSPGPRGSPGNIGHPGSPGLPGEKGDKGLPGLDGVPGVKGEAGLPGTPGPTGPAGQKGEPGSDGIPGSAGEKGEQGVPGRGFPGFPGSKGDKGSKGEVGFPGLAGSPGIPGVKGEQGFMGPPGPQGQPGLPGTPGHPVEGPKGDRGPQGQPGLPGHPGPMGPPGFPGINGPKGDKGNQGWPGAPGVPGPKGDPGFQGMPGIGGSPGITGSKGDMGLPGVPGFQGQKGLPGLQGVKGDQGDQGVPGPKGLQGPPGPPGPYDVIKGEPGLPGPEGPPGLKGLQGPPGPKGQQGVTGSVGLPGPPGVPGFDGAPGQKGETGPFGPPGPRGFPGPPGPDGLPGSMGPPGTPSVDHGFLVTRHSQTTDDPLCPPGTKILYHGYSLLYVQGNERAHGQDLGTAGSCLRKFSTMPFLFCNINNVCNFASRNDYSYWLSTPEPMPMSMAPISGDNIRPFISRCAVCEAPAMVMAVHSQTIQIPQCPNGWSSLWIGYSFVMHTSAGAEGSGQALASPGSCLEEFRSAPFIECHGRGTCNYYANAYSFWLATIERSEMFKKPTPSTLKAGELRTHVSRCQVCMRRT
denatured mouse collagen IV, sequence (P08122 26-1707, chain 2 of 2): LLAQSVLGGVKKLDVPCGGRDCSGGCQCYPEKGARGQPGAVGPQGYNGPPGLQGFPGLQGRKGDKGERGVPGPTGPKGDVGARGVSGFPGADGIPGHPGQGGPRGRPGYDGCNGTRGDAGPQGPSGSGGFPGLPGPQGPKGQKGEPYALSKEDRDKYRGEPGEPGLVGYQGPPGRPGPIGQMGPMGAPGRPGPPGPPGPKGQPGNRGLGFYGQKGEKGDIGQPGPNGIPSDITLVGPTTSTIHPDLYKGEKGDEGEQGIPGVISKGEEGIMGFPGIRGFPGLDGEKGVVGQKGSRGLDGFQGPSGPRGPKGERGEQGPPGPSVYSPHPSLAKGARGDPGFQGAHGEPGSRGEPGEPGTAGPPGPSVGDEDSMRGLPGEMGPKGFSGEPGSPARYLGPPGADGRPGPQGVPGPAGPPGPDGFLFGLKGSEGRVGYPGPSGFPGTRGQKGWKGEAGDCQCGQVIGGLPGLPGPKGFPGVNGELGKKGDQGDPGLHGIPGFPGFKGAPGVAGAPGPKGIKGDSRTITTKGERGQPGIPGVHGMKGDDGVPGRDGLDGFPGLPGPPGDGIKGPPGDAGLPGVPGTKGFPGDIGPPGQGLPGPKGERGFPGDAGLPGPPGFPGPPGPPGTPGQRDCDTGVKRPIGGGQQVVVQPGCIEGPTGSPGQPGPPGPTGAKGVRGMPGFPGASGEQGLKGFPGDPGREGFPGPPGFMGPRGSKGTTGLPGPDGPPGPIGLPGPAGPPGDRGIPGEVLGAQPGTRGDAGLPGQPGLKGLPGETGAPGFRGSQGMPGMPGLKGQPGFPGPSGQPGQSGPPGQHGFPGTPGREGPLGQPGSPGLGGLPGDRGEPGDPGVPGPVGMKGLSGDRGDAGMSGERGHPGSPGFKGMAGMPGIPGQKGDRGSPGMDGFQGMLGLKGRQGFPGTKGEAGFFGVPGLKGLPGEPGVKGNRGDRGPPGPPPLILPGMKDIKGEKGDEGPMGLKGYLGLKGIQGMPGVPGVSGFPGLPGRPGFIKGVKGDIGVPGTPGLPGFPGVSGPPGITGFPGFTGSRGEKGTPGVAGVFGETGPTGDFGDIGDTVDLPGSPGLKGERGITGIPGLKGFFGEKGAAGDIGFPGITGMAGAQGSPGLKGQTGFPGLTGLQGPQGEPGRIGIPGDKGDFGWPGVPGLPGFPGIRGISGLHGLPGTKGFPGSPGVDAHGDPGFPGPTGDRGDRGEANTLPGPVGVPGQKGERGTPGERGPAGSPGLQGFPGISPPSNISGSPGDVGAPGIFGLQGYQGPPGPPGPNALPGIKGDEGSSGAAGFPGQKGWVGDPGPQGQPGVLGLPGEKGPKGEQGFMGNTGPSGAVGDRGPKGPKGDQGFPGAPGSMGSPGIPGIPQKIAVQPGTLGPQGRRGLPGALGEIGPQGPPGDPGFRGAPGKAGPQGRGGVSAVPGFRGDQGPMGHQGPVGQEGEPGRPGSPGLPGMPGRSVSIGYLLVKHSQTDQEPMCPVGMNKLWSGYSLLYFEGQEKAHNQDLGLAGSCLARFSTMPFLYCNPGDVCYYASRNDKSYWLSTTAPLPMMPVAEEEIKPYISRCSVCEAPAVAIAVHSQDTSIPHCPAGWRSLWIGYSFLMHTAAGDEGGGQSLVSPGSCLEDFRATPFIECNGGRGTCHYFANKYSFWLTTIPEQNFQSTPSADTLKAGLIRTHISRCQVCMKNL

EC50 [1]: 13 nM | EC50 [2]: 18.5 nM
B1: P27152714 (antibody, V domains shown)
VH: QVTLKESGPALVKPTQTLTLTCTFSGFSLSTPGMGVWWIRQPPGKALEWLADIWWDDNKYTNPSLKSRLTISKDTSKNQVVLTMTNMDPVDTATYYCARRANYGNPYYAQDYWGQGTTVTVSS
VL: DIVMTQTPLSLPVTPGEPASISCRSSQSIVHSQGNTYLEWYLQKPGQSPQLLIYKVSNRFSGVPDRFSGSGSGTDFTLKISRVEAEDVGVYYCFQGSHVPWTFGQGTKVEIKR

EC50 [3]: 9.81 nM | EC50 [4]: 9.77 nM
B2: P27662716 (antibody, V domains shown)
VH: B1 VH with P43S, K45E, A46G
VL: B1 VL with H31S, Q33W

EC50 [3]: 3.04 nM | EC50 [4]: 5.05 nM
B3: P27632716 (antibody, V domains shown)
VH: B1 VH with K45E
VL: B1 VL with H31S, Q33W

EC50 [3]: 2.39 nM | EC50 [4]: 1.69 nM
B4: P27642716 (antibody, V domains shown)
VH: B1 VH with A46G
VL: B1 VL with H31S, Q33W

EC50 [3]: 9.38 nM | EC50 [4]: 3.83 nM
B5: P27582716 (antibody, V domains shown)
VH: EVQLVESGGGLVQPGGSLRLSCAASGFSLSTPGMGVWWIRQAPGKGLEWVADIWWDDNKYTNPSLKSRLTISRDNAKNSLYLQMNSLRAEDTAVYYCARRANYGNPYYAQDYWGQGTTVTVSS
VL: B1 VL with H31S, Q33W

EC50 [3]: 2.44 nM | EC50 [4]: 1.86 nM
B6: P27592716 (antibody, V domains shown)
VH: B5 VH with V50L
VL: B1 VL with H31S, Q33W

EC50 [3]: 10.9 nM | EC50 [4]: 6.13 nM
B7: P27612716 (antibody, V domains shown)
VH: B5 VH with V50L, R73K
VL: B1 VL with H31S, Q33W

EC50 [3]: 21.1 nM | EC50 [4]: 11.9 nM
B8: P27602716 (antibody, V domains shown)
VH: B5 VH with I39V, V50L, R73K
VL: B1 VL with H31S, Q33W

EC50 [5]: ~259 nM | EC50 [6]: 32.9 nM | EC50 [7]: 487 nM | EC50 [1]: 10.4 nM | EC50 [2]: 59.7 nM
B9: P27122713 (antibody)
heavy: not shown
light: DIVMTQTPLSLPVTPGEPASISCRSSQSIVHSNGNTYLEWYLQKPGQSPQLLIYKVSNRFSGVPDRFSGSGSGTDFTLKISRVEAEDVGVYYCFQGSHVPWTFGQGTKVEIKRTVAAPSVFIFPPSDEQLKSGTASVVCLLNNFYPREAKVQWKVDNALQSGNSQESVTEQDSKDSTYSLSSTLTLSKADYEKHKVYACEVTHQGLSSPVTKSFNRGEC

EC50 [5]: 15.2 nM | EC50 [8]: 10.2 nM | EC50 [6]: 9.63 nM | EC50 [7]: 229 nM | EC50 [1]: 1.37 nM | EC50 [2]: 2.12 nM
B10: P27152716 (antibody)
heavy: not shown
light: B9 light with H31S, N33W

EC50 [1]: 125 nM | EC50 [2]: 19 nM
B11: P27122716 (antibody)
chain 1: not shown
chain 2: B9 light with H31S, N33W

EC50 [9]: 3.31 nM | EC50 [10]: 18.6 nM | EC50 [11]: 3.94 nM
B12: P27962716 (antibody)
chain 1: not shown
chain 2: B9 light with H31S, N33W

EC50 [1]: 33.9 nM | EC50 [2]: 80.8 nM
B13: P27122714 (antibody)
chain 1: not shown
chain 2: B9 light with N33Q

EC50 [5]: 86.2 nM | EC50 [6]: 59.6 nM | EC50 [7]: 197 nM | EC50 [2]: 76.3 nM | EC50 [4]: 9.97 nM
B14: P27152798 (antibody)
heavy: not shown
light: B9 light with G34A
